Measured values reported in paper PMC3084784 (PLoS ONE, 2011).

B1: LILRA3 D1 (domain 1, residues 1-97) (domain or fragment)
chain: GPLPKPTLWAEPGSVITQGSPVTLRCQGSLETQEYHLYREKKTALWITRIPQELVKKGQFPILSITWEHAGRYCCIYGSHTVGLSESSDPLELVVTG
B2: LILRB2 D1D2 (domain or fragment, human)
chain: GTIPKPTLWAEPDSVITQGSPVTLSCQGSLEAQEYRLYREKKSASWITRIRPELVKNGQFHIPSITWEHTGRYGCQYYSRARWSELSDPLVLVMTGAYPKPTLSAQPSPVVTSGGRVTLQCESQVAFGGFILCKEGEDEHPQCLNSQPHARGSSRAIFSVGPVSPNRRWSHRCYGYDLNSPYVWSSPSDLLELLVPG
notes: LILRB2 (ILT4), domains 1 and 2 (D1D2); also called LILRB2 D1D2 monomer; ILT4 D1D2
B3: LILRA3 D1D2 (domain 1 and domain 2, residues 1-197) (domain or fragment)
chain: GPLPKPTLWAEPGSVITQGSPVTLRCQGSLETQEYHLYREKKTALWITRIPQELVKKGQFPILSITWEHAGRYCCIYGSHTVGLSESSDPLELVVTGAYSKPTLSALPSPVVTSGGNVTIQCDSQVAFDGFILCKEGEDEHPQCLNSHSHARGSSRAIFSVGPVSPSRRWSYRCYGYDSRAPYVWSLPSDLLGLLVP

Key:
[1] = biological target: HLA-A*0201 (heavy chain, β2m and peptide …) (human |  | human SARS-CoV); experiment: SPR; settings: both partners purified
[2] = biological target: T1, HLA-G1 (heavy chain, β2m and peptide …) (human | , UniProt P17693-1 25-300; P61769 21-119); experiment: SPR; BIAcore 3000; HLA-A*0201 (700 RU) or HLA-G1 (300 RU) immobilised by amine coupling on CM5 at pH 5.0, BSA as control surface; LILR injected; 25°C; 10 mM HEPES pH 7.4, 150 mM NaCl, 3 mM EDTA, 0.005% Tween-20; Kd by Scatchard analysis or nonlinear fit of a Langmuir isotherm; settings: both partners purified
T1 construct: HLA-G1 heavy chain, recombinant; β2-microglobulin (β2m), from inclusion bodies; also called non-classical HLAI; copies: + +

Row | Binder | Kd [1] | Kd [2]
1 | B1 | 40.1 µM | –
2 | B2 | 9.74 µM | 5.62 µM
3 | B3 | 28.5 µM | –
